The source of these data is the RNAGym collection of RNA variant scans (doi:10.7554/elife.80360).

Sequences and labels used below:
B1: Hammerhead Ribozyme (parent)
chain: ACCGGAUGUGCUUUCCGGUCUGAUGAGUCCGUGAGGACGAAACAG

Variants of B1 are the subject of this data set. In words: self-cleavage, relative activity (ratio to wild type); higher = more cleavage; co-transcriptional.
Take U24G A40G: the self-cleavage came out at 0.392. U24G A40C: the self-cleavage is 0.421. Under U24G A40U stands 0.308. Under U24C A26U stands 0.559; under U24C A26G, 0.401. Under U24C A26C stands 0.609; under A23U G36A, 0.375. Regarding A23U G36U, the self-cleavage came to 0.314.

For A23U G36C, the self-cleavage came out at 0.327. Under U24A A34C stands 0.88. In the case of U24A A34U, the self-cleavage worked out at 0.849. Under U24A A34G stands 0.777; under A23U C43U, 0.433; under A23U C43G, 0.356. Under A23U C43A stands 0.377; under U24A G25A, 0.243; under U24A G25U, 0.282.

For the variant U24A G25C, the self-cleavage worked out at 0.366. U24A U28C: the self-cleavage worked out at 1.27. Under U24A U28G stands 0.694. U24A U28A: the self-cleavage was determined as 0.729. Under U24A C38A stands 0.696; under U24A C38G, 0.645; under U24A C38U, 0.993. As for U24G A44U, the self-cleavage was determined as 0.608. Under U24G A44G stands 1.49; under U24G A44C, 0.617; under U24C A44G, 1.18.

Regarding U24C A44C, the self-cleavage amounted to 0.503. Consider U24C A44U, for which the self-cleavage was found to be 0.542. Under U24C G33C stands 1.15; under U24C G33U, 0.854; under U24C G33A, 1.36.

On to U24C G25U, for which the self-cleavage stood at 0.305. With U24C G25A, the self-cleavage came out at 0.363.

Take U24C G25C: the self-cleavage was 0.324. Turning to A23U G27A, the self-cleavage was found to be 0.32. Under A23U G27C stands 0.308; under A23U G27U, 0.279; under A23C C29G, 0.369. As to A23C C29U, the self-cleavage amounted to 0.337.

For A23C U32C, the self-cleavage was determined as 0.509. Under A23C U32G stands 0.383. Under A23C U32A stands 0.466. Take U24C A41C: the self-cleavage came out at 0.305.

As to U24C A41G, the self-cleavage stood at 0.358. U24C A41U: the self-cleavage was determined as 0.408. Under A23U G31A stands 0.631; under A23U G31U, 0.477; under A23U G31C, 0.393. Under A23U stands 0.425. For the variant A23G, the self-cleavage was 0.439. Under U24A A37C stands 1.03; under U24A A37G, 1.09. Under U24A A37U stands 0.771.

As to U24G A34C, the self-cleavage stood at 0.823. Regarding U24G A34G, the self-cleavage is 0.902. Under U24G A34U stands 0.679; under U24A, 1.03; under U24G, 1.03.

U24C: the self-cleavage is 0.959. Under A23U U32G stands 0.41; under A23U U32C, 0.311; under A23U U32A, 0.376.

Take U24C A34U: the self-cleavage amounted to 0.824. Under U24C A34C stands 0.746. Under U24C A34G stands 0.901. On to A23C G39C, for which the self-cleavage was determined as 0.357. Under A23C G39A stands 0.298; under A23C G39U, 0.371; under U24A G35C, 0.851. Consider U24A G35A, for which the self-cleavage came to 0.873. Under U24A G35U stands 0.791.

On to U24C G27C, for which the self-cleavage amounted to 0.559.

Take U24C G27U: the self-cleavage came out at 0.335. As for U24C G27A, the self-cleavage was found to be 0.53.

Regarding A23G A37U, the self-cleavage amounted to 0.28.

Turning to A23G A37G, the self-cleavage was 0.314. Under A23G A37C stands 0.3; under A23U U24C, 0.45; under A23U U24A, 0.58. Under A23U U24G stands 0.251; under U24A A44G, 1.68; under U24A A44C, 0.46. Turning to U24A A44U, the self-cleavage came to 0.712. With U24A G33A, the self-cleavage was determined as 1. Under U24A G33U stands 0.78. Under U24A G33C stands 1.21; under U24C G35U, 0.655. As for U24C G35C, the self-cleavage stood at 0.461. Under U24C G35A stands 0.702. Under A23G G27U stands 0.282; under A23G G27C, 0.285.

In the case of A23G G27A, the self-cleavage is 0.297.

U24C G45C: the self-cleavage turned out to be 0.641. With U24C G45A, the self-cleavage is 0.465. Under U24C G45U stands 0.669; under A23U A37C, 0.381. Take A23U A37U: the self-cleavage worked out at 0.272.

For the variant A23U A37G, the self-cleavage was 0.422. For U24A C43U, the self-cleavage is 0.518. Take U24A C43G: the self-cleavage came out at 0.374. Under U24A C43A stands 0.341; under A23U U28G, 0.36. Consider A23U U28C, for which the self-cleavage was found to be 0.356. Turning to A23U U28A, the self-cleavage was found to be 0.375.

For U24C C43G, the self-cleavage was 0.36. Under U24C C43A stands 0.271. With U24C C43U, the self-cleavage was 0.404.

A23G G36C: the self-cleavage is 0.291. For the variant A23G G36U, the self-cleavage is 0.403. Take A23G G36A: the self-cleavage was determined as 0.34.

For the variant U24A G27C, the self-cleavage is 0.685. Under U24A G27A stands 0.7; under U24A G27U, 0.508; under A23C G31U, 0.647. Under A23C G31C stands 0.533. Under A23C G31A stands 0.68; under A23G A34U, 0.364; under A23G A34G, 0.35. As to A23G A34C, the self-cleavage came out at 0.338. Under A23G C29G stands 0.26; under A23G C29A, 0.319.

As to A23G C29U, the self-cleavage came to 0.356. Consider U24G C29G, for which the self-cleavage came to 0.781. Under U24G C29A stands 0.447. Under U24G C29U stands 0.987; under A23U A44G, 0.706.

In the case of A23U A44U, the self-cleavage was 0.336. In the case of A23U A44C, the self-cleavage amounted to 0.438. Under A23G G35U stands 0.316; under A23G G35C, 0.279; under A23G G35A, 0.38. With A23C G33U, the self-cleavage came out at 0.659. Under A23C G33A stands 0.621.

As to A23C G33C, the self-cleavage came to 0.479.

In the case of A23G U32C, the self-cleavage came to 0.375. Under A23G U32G stands 0.366; under A23G U32A, 0.387. Regarding U24C C30A, the self-cleavage was found to be 0.904. Under U24C C30U stands 1.14; under U24C C30G, 0.613; under U24A G31A, 1.15. Under U24A G31C stands 0.814; under U24A G31U, 0.927; under A23U G35A, 0.471. A23U G35C: the self-cleavage worked out at 0.356. Under A23U G35U stands 0.37; under U24C U28C, 1.06; under U24C U28A, 0.614. Under U24C U28G stands 0.99. On to A23G C38G, for which the self-cleavage is 0.311. Regarding A23G C38U, the self-cleavage was 0.394. As to A23G C38A, the self-cleavage worked out at 0.328. As to A23U A26U, the self-cleavage is 0.374. In the case of A23U A26G, the self-cleavage came to 0.304. Under A23U A26C stands 0.379. A23G G39A: the self-cleavage stood at 0.301. As for A23G G39C, the self-cleavage stood at 0.33. Under A23G G39U stands 0.347. Consider U24G A26U, for which the self-cleavage worked out at 0.718.

For the variant U24G A26G, the self-cleavage was 0.304. U24G A26C: the self-cleavage came to 0.373. For A23G A26U, the self-cleavage stood at 0.3. Turning to A23G A26C, the self-cleavage was found to be 0.263. For A23G A26G, the self-cleavage came out at 0.327.

A23C U24G: the self-cleavage worked out at 0.464.
